Data taken from paper PMC7412237 (Molecules, 2020).

How the values were obtained:
Settings in all cases: both partners purified
wt-p53 (1–321 aa) = molecular target: T1, wt-p53 (1–321 aa) (human, UniProt P04637 1-321); assay: ITC; Microcal iTC200, 25 °C; 0.012–0.030 mM p53 in the cell, 0.1–0.3 mM Mdm2 or MdmX in the syringe; 20 injections; single set of sites; in duplicate
T1 construct: p53, human, residues 1-321, cloned into pET23; also called p53-wt; source: E. coli BL21 (DE3) RIL, purified (Ni-NTA, gel filtration)
T1 sequence (P04637 1-321): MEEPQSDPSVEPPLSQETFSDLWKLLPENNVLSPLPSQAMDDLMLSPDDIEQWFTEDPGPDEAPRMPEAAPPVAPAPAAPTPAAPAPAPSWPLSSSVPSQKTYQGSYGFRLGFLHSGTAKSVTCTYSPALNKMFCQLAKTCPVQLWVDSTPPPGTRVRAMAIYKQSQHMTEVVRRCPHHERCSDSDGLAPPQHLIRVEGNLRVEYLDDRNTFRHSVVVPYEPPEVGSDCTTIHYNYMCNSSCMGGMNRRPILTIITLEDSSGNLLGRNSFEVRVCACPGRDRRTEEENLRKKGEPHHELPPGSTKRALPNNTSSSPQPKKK

[1] = molecular target: human wt-PD-1 (33–150 aa, C93S mutation) (human, UniProt Q15116 33-150, C93S, RED-NHS fluorescent label (in the MST); uniformly 15N-labelled (in the NMR)); assay: MST; PD-1 or mutant labelled with RED-NHS, kept at 20 nM; unlabelled PD-L1 diluted from 183 µM to 416 nM; 50 mM Tris-HCl pH 7.6, 150 mM NaCl, 10 mM MgCl2, 0.05% Tween-20; 2 h at RT
human wt-PD-1 (33–150 aa, C93S mutation), sequence (Q15116 33-150 C93S): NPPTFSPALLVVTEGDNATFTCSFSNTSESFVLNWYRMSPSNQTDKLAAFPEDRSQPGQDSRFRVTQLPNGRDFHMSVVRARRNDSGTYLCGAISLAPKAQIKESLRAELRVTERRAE

(N66A)PD-1 = (N66A)PD-1 (human, UniProt Q15116 33-150, C93S | N66A, RED-NHS fluorescent label (in the MST); uniformly 15N-labelled (in the NMR)); assay: as above
(N66A)PD-1, sequence (Q15116 33-150 N66A/C93S): as the sequence (Q15116 33-150 C93S) above, with N34A counted along it

Kd (wt-p53 (1–321 aa)) [µM]	Kd [1] [µM]	Kd ((N66A)PD-1) [µM]	Binder
0.6 ± 0.02	–	–	recombinant human Mdm2 (1–125 aa) (domain or fragment, UniProt Q00987 1-125, looked up) MCNTNMSVPTDGAVTTSQIPASEQETLVRPKPLLLKLLKSVGAQKDTYTMKEVLFYLGQYIMTKRLYDEKQQHIVYCSNDLLGDLFGVPSFSVKEHRKIYTMIYRNLVVVNQQESSDSGTSVSEN
–	8	> 100	recombinant PD-L1 (18–134 aa) (domain or fragment) AFTVTVPKDLYVVEYGSNMTIECKFPVEKQLDLAALIVYWEMEDKNIIQFVHGEEDLKVQHSSYRQRARLLKDQLSLGNAALQITDVKLQDAGVYRCMISYGGADYKRITVKVNAPY
